Source: article PMC10653885 (mBio, 2023)

Columns and labels:
[1] = target: recombinant BB0323 (rBB0323) (Borrelia burgdorferi) (UniProt O51302); assay: MST; 10 nM target protein labelled with Red-tris-NTA dye; 12-point 1:1 serial dilution of the ligand from 20 µM; PBS + 0.05% Tween-20, pH 7.4; 40% MST power, 10% LED power; TJump analysis, KD fit model of 1:1 stoichiometry; three biological replicates
[2] = target: recombinant wild-type BB0238 (rBB0238^WT) (Borrelia burgdorferi B31) (UniProt O51254); assay: as above
[3] = target: recombinant BB0238 P65A (rP65A) (Borrelia burgdorferi B31); assay: SEC; analytical size exclusion chromatography on a calibrated Superose 12 column; apparent molecular masses from a standard curve
[4] = target: recombinant BB0238 P65A (rP65A) (Borrelia burgdorferi B31); assay: MST; 10 nM target protein labelled with Red-tris-NTA dye; 12-point 1:1 serial dilution of the ligand from 20 µM; PBS + 0.05% Tween-20, pH 7.4; 40% MST power, 10% LED power; TJump analysis, KD fit model of 1:1 stoichiometry; three biological replicates
[5] = target: recombinant BB0238 Y37A (rY37A) (Borrelia burgdorferi B31); assay: as above
[6] = target: recombinant BB0238 Y37A (rY37A) (Borrelia burgdorferi B31); assay: SEC; analytical size exclusion chromatography on a calibrated Superose 12 column; apparent molecular masses from a standard curve
[7] = target: T1, recombinant BB0323 (rBB0323) (Borrelia burgdorferi, UniProt O51302 1-377, labelled with NanoTemper Red-tris-NTA dye (only in the MST with BB0108)); assay: MST; 10 nM target protein labelled with Red-tris-NTA dye; 12-point 1:1 serial dilution of the ligand from 20 µM; PBS + 0.05% Tween-20, pH 7.4; 40% MST power, 10% LED power; TJump analysis, KD fit model of 1:1 stoichiometry; three biological replicates; settings: both partners purified
T1 sequence: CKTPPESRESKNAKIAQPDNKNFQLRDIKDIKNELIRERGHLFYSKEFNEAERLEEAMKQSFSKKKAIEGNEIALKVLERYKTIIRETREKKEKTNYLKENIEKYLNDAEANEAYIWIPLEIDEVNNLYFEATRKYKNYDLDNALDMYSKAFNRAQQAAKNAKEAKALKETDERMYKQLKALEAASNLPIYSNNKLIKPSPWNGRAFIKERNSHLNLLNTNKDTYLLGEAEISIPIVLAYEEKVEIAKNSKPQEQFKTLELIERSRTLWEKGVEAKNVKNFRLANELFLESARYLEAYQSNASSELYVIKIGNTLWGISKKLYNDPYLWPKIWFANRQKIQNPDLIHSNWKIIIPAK

[8] = target: the molecule itself; assay: SEC; analytical size exclusion chromatography on a calibrated Superose 12 column; apparent molecular masses from a standard curve

## recombinant BB0108 (enzyme)
[1]
  Kd: 2330 nM
[2]
  Kd: 1890 nM

## recombinant BB0238 P65A (rP65A) (natural protein)
[3]
  stoichiometry N: 2

## recombinant BB0323 (rBB0323) (from UniProt O51302 1-377) (natural protein)
[4]
  Kd: 702 nM
[5]
  Kd: 658 nM

## recombinant BB0238 Y37A (rY37A) (natural protein)
[6]
  stoichiometry N: 2

B1: recombinant wild-type BB0238 (rBB0238^WT) (natural protein)
chain: SSYIDKQKELAIFYYEVGQRYINVGKIKKGKLFQAKALKIYPDLKKGFDIKLAVKELDARIKDDNPKVVMLEDIKLEEIPGIVHEKIEINDFTNAPKIEYIAQRERSKNQDKIIKFQFGKFARALISRNFDLFDSVIADKVNVMGQFESKNDFISTLSSASSKADADELEYLSVDDYYDLKSLKISKSNDTSFAVNVNAKKNDVTKNFPFWKERQTLIFTTEDDNNWFLSSIN
modifications: labelled with NanoTemper Red-tris-NTA dye (in MST only)
[7]
  Kd: 1000 nM
[8]
  stoichiometry N: 2
